Measured values reported in patent publication US20130029902A1 (PHARIS BIOTECH, published 2013).

Key:
EGFP-hCXCR4 [1] = target: T1, EGFP-hCXCR4 (human, UniProt P61073 1-352); assay: competition with CXCL12-Tr on CXCR4 expressing HEK293 cells, FRET
Protocol: (§1) The CXCR4 receptor is stably transfected in Human Embryonic Kidney (HEK) cells as a fusion protein with the EGFP fluorescent protein fused to the extracellular amino-terminal part of the receptor (EGFP-CXCR4). The human chemokines CXCL12 and CXCL12-TexasRed were synthesized as described (Amara et al., 1999, JBC 274:23916-23925; Valenzuela-Fernandez, et al., 2001, JBC 276:26550-26558). Real-time fluorescence monitoring of ligand-receptor interactions was performed as followed: HEK293 cells expressing the fusion receptor, EGFP-hCXCR4, were harvested in phosphate-buffered saline supplemented with 5 mM EDTA, pH 7.4, centrifuged and resuspended in HEPES-bovine serum albumin buffer (10 mM HEPES, 137.5 mM NaCl, 1.25 mM MgCl2, 1.25 mM CaCl2, 6 mM KCl, 10 mM glucose, 0.4 mM NaH2PO4, 1% bovine serum albumin (w/v), pH 7.4) supplemented with protease inhibitors (40 μg/mL bestatin and bacitracin, 20 μg/mL phosphoramidon, 50 μg/mL chymostatin, and 1 μg/mL leupeptin). […] Time-based recordings of the fluorescence emitted at 510 nm (excitation at 470 nm) were performed at 21° C. using a spectrofluorimeter (fluorolog 2, Spex) and sampled every 0.3 s. Fluorescence binding measurements were initiated by adding at 30 seconds 100 nM of CXCL12-TR to 1 mL cell suspension. […] Then, CXCL12-TR (100 nM) was added and fluorescence was recorded until equilibrium was reached (300 sec). […]

CXCR4 = CXCR4 (UniProt P61073 1-352, limits assumed); assay: cell-based or functional assay
EGFP-hCXCR4 [2] = target: T1, EGFP-hCXCR4; assay: competition with 100 nM CXCL12-TR on HEK293 cells expressing EGFP-hCXCR4, FRET
Protocol: as §1

T1 sequence (P61073 whole entry, the tested form may be a part): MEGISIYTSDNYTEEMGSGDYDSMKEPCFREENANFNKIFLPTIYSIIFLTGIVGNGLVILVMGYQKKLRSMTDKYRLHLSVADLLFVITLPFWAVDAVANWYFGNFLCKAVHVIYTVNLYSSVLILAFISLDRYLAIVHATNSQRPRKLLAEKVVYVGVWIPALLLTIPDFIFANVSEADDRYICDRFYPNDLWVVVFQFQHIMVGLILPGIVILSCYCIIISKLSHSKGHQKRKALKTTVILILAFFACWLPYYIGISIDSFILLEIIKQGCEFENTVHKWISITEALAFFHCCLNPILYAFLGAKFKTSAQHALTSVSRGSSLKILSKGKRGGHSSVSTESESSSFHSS

B1: ALB408-413 (peptide)
peptide: LVRYTK
notes: Synthetic fragment of human serum albumin
- Kd (EGFP-hCXCR4 [1]): > 200 µM

B2: ALB408-423 (peptide)
peptide: LVRYTKKVPQVSTPTL
notes: also called Human circulating antiviral albumin fragment; wild type peptide
- IC50, HIV-1 NL4-3 infection of TZM-bl cells (fraction 31 from hemofiltrate) (CXCR4): 21.4 µg/mL
- IC50, X4 tropic HIV-1 and HIV-2 infection of TZM-bl cells (CXCR4): 10 to 20 µM
- mean IC50, infection of TZM-bl cells by X4-tropic HIV-1 variants (CXCR4): 24.2 µg/mL
- EC50 (EGFP-hCXCR4 [2]): 8 µM
- Ki (EGFP-hCXCR4 [2]): 3 µM
